A short description of the data set: label from the status in PepcDB records.
Turning to “MNDHTAAIAAHFDQLAPNLDRWRRRNRTYYRDLEKLHRFWIPTGSRVLQVGSGLGDLLATVEPSFGIGIDVSPQAVAIAQQRHPQLQFHCLAAEELTPEAIGNPEPFDAIILTGVLSYLTDIQVVLEQLQAFCHPRTRLILGFHNFLWQPLLTAAEKVGQRSPQPPESWLGMQDVLNLLTLTGYEPIKQGRRFLLPRQIPLLTGWINRWISPLPVIEHLALTNYVIARPLAQPRSQPTVSVIVPARNEAGNIAAAVERLPELGAETELIFVEGHSRDQTWETIEQTVAEYQGPLKLLACRQTGKGKADAVRLGFDKASGDILMILDADLTVQPEDLGHFYRAIASGRGEFINGSRLVYPRSRLAMPGLNTLANRTFALIFSFLLGQPLKDTLCGTKVLWKTDYDRVAAGRKYFGDFDPFGDFDLLFGAAKLGLEIVEVPVRYQERSYGSSNIAHVREGLILARMCLYAAGKLKFPH”, the protein production result is listed as “failed”. Regarding “MNDIILKSLSTLITEQRNPNSVDIDRQSTLEIVRLMNEEDKLVPLAIESCLPQISLAVEQIVQAFQQGGRLIYIGAGTSGRLGVLDASECPPTFGVSTEMVKGIIAGGECAIRHPVEGAEDNTKAVLNDLQSIHFSKNDVLVGIAASGRTPYVIAGLQYAKSLGALTISIASNPKSEMAEIADIAIETIVGPEILTGSSRLKSGTAQKMVLNMLTTASMILLGKCYENLMVDVQASNEKLKARAVRIVMQATDCNKTLAEQTLLEADQNAKLAIMMILSTLSKSEAKVLLERHQGKLRNALSK”, the protein production result is “not failed”. Consider “MNDLKRLPYEPVKGLLPRPAVGTSERVITLPEPDRTSGMPLMGTLWLRKSTREFDQQPLPLKQLSELLWAAAGVNRSLGGGRTAPSPYGETVIDVYVALPAGLYRYDPVHHCLELKRAADLRSMTGYQDFVGMAPLDLVFVANHGRMQEMPPKLRETFSAAAAGAMAENAYLYCASAGLGAVVRGWLNRRQLAEHMSLNEDEEPILSQTIGRAASHVTTTQA”, for which the protein production entry is given as “not failed”. For the sequence “MNDNVLRYIKRVFNLITILGFVATIVGGIYLWRLGAFQNQAVLQQLIVAHRFLGPLIFLCMQILQVIVPIIPGGITMAAGVMIFGPVWGFVYNYFGIVAGSFLLFHFGKKYGSSLAKTFVKEKTYNKYMAWLDKGQKRFNIVFALLILSPIAPDDALVLIASQTKMSWKFFTWSILLCKPLPILLYSYLLIFGGDLLGHIL”, the protein production entry is on record as “failed”. For the sequence “MNDPQKLCDVNFFRPRKGYMTGEVAIIAAVLVGWAVANFGFQGVLALLAQSPDGEGILTRLTFLSFPWHFWFTGQFLPLWFIILCVLFNIYIDRHTEQHSRRRDRSHD”, the protein production result is given as “failed”. For “MNDQELRAYLSQAKTIAVLGAHKDPSRPAHYVPRYLREQGYRVLPVNPRFQGEELFGEEAVASLLDLKEPVDILDVFRPPSALMDHLPEVLALRPGLVWLQSGIRHPEFEKALKEAGIPVVADRCLMVEHKRLFRGPLPL”, the protein production result is listed as “not failed”.

“MNDRMDPPPPRIEDILPHRGSMLLLAHVDTWDDETLRASAHVDPTAWYADPEGAMPAWFGIELMAQAIAAHVGLLSMREGNPARPGVLLGSRKYEAHAPAFAPAQPLSIAVQEVLRSTEGHGAYACTIAAGGRDLAQAVIKVYQPTDFQAFIEGSFAS”: the protein production entry was “failed”. As to “MNDTLLTTYTLAEGLHWLDLIGVLAFAMSGALLGVRKRFDLFGVLVLGAVTAVGGGAIRDSLTGQTPPLFLRDETYLWTALLGALLAFAFGERLARFERTLSLFDSAGLALFATSGALGAIKIGLGPLGVVFAGMLSGVGGGIIRDLIANEVPEVMYRRDQLYATAAAAGAGAVWLLAPHFTPFQAQAGGALLVLFLRWVSRRQWVRLPVRRLPE”, the protein production result is on record as “failed”.

“MNEEKQQELLISVIITNYNYDQFIDQAIESVLSQTYYNFELIIVDDGSTDNSRDVISSYTDSRIKALVKNNGGQASAFNAGFEQANGEIICFLDSDDWWKPEKLETIIRWHYFINKDYAIFQHVLDVWYEGKTRPYKHILPSGDCFAEMKKVKKLDFFVPTSGLSFPKKILDRIFPIPIKFIIAADSYIMRTACVFNMVYSIPKSLGFYRQHDNTVFLNPDFDLQPFLKEILIPELNQFYQKYRINYQIEISDYNFNERKKNKKQKIFEYLKKVFFLEHHHHHH”: the protein production entry was “failed”. Consider “MNEFMEPLDRISAETLGHYERNAEAFFEGTRDHDVSQNIAALLSHIRTEPPFTVLDFGCGPGRDLKAFTELGHRAVGLDGAFRFVEMARDYSGCEVWHQDFLKLDLPEEHFDGIFANATLFHVPSRELPRVLGELRAALKPEGVLFASNPRGRNEEGWNRGRYGVYHDLDTWRRFLTSAGFLELEHYYRPAGLPRDQQPWLASVWRRTLEHHHHHH”, for which the protein production entry was “not failed”. As for “MNEIITWILIVICLTQSAVFSGLTIGIFGLGRLRLEIEAEANNKNAIKILQVRRDSNFLLTTLLWGNVGVNVLIAQLTDSVMAGTFAFLFSTFGITCFGEIMPQAYFSRNALDIGAKLTPLVRFYQMLLYPVAKPTALVLDWWLGREKLELFREQAMRIMLEKHIESGKTDIGTFEGIGALNFLSIDDVSISDEGSIIDSRSIISLPVENNRPVFPPFNREPSDPFLQKIEASGKKWVIITSPENEPVMVLDADGFLRDAVYKKGPFLPLIYCHFPVVVKSPETRLEKVIRQFKVYPQYPEDDVIDQDLILYWGEEKRIITGSDILGRLLRGIVVECELGSGCEIPVPPSQPGFVRRTAFRRGKKKEIENLKRK”, the protein production entry is listed as “not failed”.

On to “MNEISVVLPAYNEEENIQKLVKRWQQLCKDLKYKYELSLNIFVIDDGSKDKTEVIGRELERKYDNFYLIKHDKNKGLGEAINTGIKYVMEKRSDSKYVCIMDCDNTQDPRYVFSMIEKMEKTDVVIASRYQKGSCVKGVPFFRLTASYGARFVYTIFLGVKNVRDYTCGYRLYRTSALKTAFKVFGESFIEESGFTCMVELLYKLNICGAVFKEVPFTLRYDFKGGVSKMKVLITAINSVKLTLRLKKIRKGVEPVLEDLEHHHHHH”, for which the protein production result is “failed”. The same measure for “MNEKSFNYDFSVIMPIYNVELYLTEAIESIINQTIGFENIQLILVNDDSPDKSEIICKEYAQKYPNNIVYAKKQNGGVSSARNYGLKYAEGRYIQFLDPDDLVSEGTFENVLNFFDEHKNEIDIVAIPIFFAEGRTGEHNLNNKFSSTRILDVEKEPHHILTHCCSTFIKKDALKNIRFDENCKIGEDAKLVNLIISQKKKYGLVKEAKYHYRVREDGSSAMQTAKANKNWFNHSLITFSKNLIDIIKNHEQKIPLFLQYMVMHDLKWKLLIKDISETPLDENEYSEFLTLIREVLSYIDDDVIIETKSVSHFYLYHALKIKHGENYSRYVYERETEQDYYLYREGKIVSKLSDQTLTIEILEENEDSIHIEGFWSSLFNSKGFKFYAKIGETKIKAKNIKRQHNDYISLGEVIKKYPGFSIDIPKGHLADNHHIEFFITKGKKRKLTKLRFFKYSGLSNDLYNTYVAKKDYIFYYNYKKLMFKKNNFKNRFIKEFRFLKSLHKSGEKSKKRKSAIKKALMARMVHHVFTIFNRKPVWLFIDRQDKADDNAEHLFKYAINKNDGVKKYFIIKKDSKDYDRIKKYGKVIPYRSFRHKILTLSSSKVISTHADIWVVNPFFNMEIYFRDLFNFEFIFLQHGITMADHSEWLNKYNKNIKLLVTSAKPEYRSIVKGNYNYKKENILLGGFPRYDNLKKSEGEKQLLIMPTWRKDIVLPKDQAKGVRPYNPKFKDSEYFSRYNALINDERLIEFAKKNNYKITFFPHPDIQQQIVDFEKHDYVEFADYNSSYQMLFNSSNIMITDFSSVAFDFAYEKKPVIYYQYEKSYHFKLDYYDYKKMGFGDVLENHNSLVDKVIYYMKNNSRMEDKYRKRVDNFFAYTDKNNRNRIYNAILELDNNKVAK”: “failed”; for “MNELFDAKESLSPAEREDSLFQRLPTLIENAKANSEHYGNIFSGIDASIASNREGLAQFPITRKFNVPSQQQLKPPFGGLNSVAIGQMARVFQSPGPLYEAQTDESDFWRMGRAFHAAGFRRGDLVHNTLSYHFSPGGFIMDGGARACGCAVFPAGVGNTEAQIEAIKQLQPTGYTGTPSYLLTLLQKYQEQYGELPSFTKALVSGEAVTADMQQAFTDKGIAVFQAYASAELGLIAYQVAGEQGLVIGEDIIVEIVDPDGMPVPPGEVGEVVVTSLDEKFPLIRYATGDLSAYIENDANSPYTNMRIKGWMGRADSAVKVKGLFVYPHQIQEVCRRHEITGSLKIERDGFNDTITFCCHDVHVSAEDIQATLQSVTKLKGNVQFVANDADQPLINDLRS”: “failed”.

The values above are taken from a protein production outcome set (Wang et al. 2014).
